According to paper PMC8807537 (Acta Naturae, 2021):

Biological target: T1, recombinant protein GP Zaire ebolavirus (H. sapiens-wt/GIN/2014/Kissidougou-C15 strain) (Zaire ebolavirus, …, UniProt X5HMX4, strain)
T1 construct: also called EBOV GP; recombinant EBOV GP
Experiment: ELISA; indirect ELISA; […] (1 ug/ml) […]
Settings: both partners purified

B1: control antibody MAb114 (antibody, V domains shown)
VH: EVQLVESGGGLIQPGGSLRLSCAASGFALRMYDMHWVRQTIDKRLEWVSAVGPSGDTYYADSVKGRFAVSRENAKNSLSLQMNSLTAGDTAIYYCVRSDRGVAGLFDSWGQGILVTVSS
VL: DIQMTQSPSSLSASVGDRITITCRASQAFDNYVAWYQQRPGKVPKLLISAASALHAGVPSRFSGSGSGTHFTLTISSLQPEDVATYYCQNYNSAPLTFGGGTKVEIK
binding result: binds
